± gives the standard deviation of the averaged measurements.
The sequences below were run on Saccharomyces cerevisiae (assay: protein stability index of tFT-peptide fusion (C-terminal peptide) (PSI (0-1 scale)); higher = more stable (slower turnover)). Conditions: genetic background: das1 deletion; temperature: 30 C.
Procedure: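 MPS profiling in S. cerevisiae of the tFT-X12 degron library: putative degron peptides plus stable controls, 12 aa, fused to the C-terminus of a sfGFP-mCherry timer. Cells are FACS-sorted into 8 mCherry/sfGFP bins and deep-sequenced. PSI runs from 0 (unstable) to 1 (stable). Backgrounds are wild type, das1Δ and doa10Δ at 30 °C, and wild type, das1Δ, cdc34-1 and cdc53-1 at 37 °C; 2-3 technical replicates each.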
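Note: PSI is a weighted mean of sequencing reads over stability bins, variants kept only with over 10 reads, mCherry proximal and sfGFP distal, peptide attached via GGGS linker.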

Row | Sequence | protein stability index
1 | ISLVLVVIEVQR | 0.166 ± 0.042
2 | ISVFLFAFFFIP | 0.395 ± 0.03
3 | ISVQKRRAIEII | 0.496 ± 0.03
4 | IVCFCFFLMFSL | 0.321 ± 0.021
5 | IVVLCHVFLDLG | 0.125 ± 0.048
6 | IWCQVGAFLVVF | 0.209 ± 0.024
7 | IYVLLDVNYHLP | 0.379 ± 0.024
8 | IYVSVMLLRYRF | 0.342 ± 0.035
9 | KCKIWFREVSMN | 0.647 ± 0.015
10 | KGSFDLPTFSLF | 0.644 ± 0.026
11 | KICAVRVIMDWC | 0.383 ± 0.044
12 | KIKVFHEMVLMC | 0.446 ± 0.031
13 | KKNKIYKERKNI | 0.6248 ± 0.0028
14 | KKNTQKKIKLSC | 0.627 ± 0.035
15 | KKRYSEIFKKNG | 0.637 ± 0.016
16 | KLLLTCTFLVFP | 0.37 ± 0.032
17 | KNKRQKNTIRKQ | 0.654 ± 0.034
18 | KQNKKHKKLKSN | 0.66 ± 0.026
19 | KRLRDFLVIMCS | 0.24 ± 0.03
20 | KTLCFLCRTRNS | 0.668 ± 0.027
21 | KVRVRTTCWRKL | 0.625 ± 0.015
22 | KYHLAAQLLVLL | 0.531 ± 0.022
23 | LAFAGRCGLYVC | 0.583 ± 0.026
24 | LAGLFICTLISC | 0.203 ± 0.023
25 | LASCRIVVIYSI | 0.349 ± 0.036
26 | LCFEQRYIGVLV | 0.279 ± 0.035

Row | Sequence | protein stability index
27 | LCFVSTWVWSVG | 0.395 ± 0.032
28 | LCWLCIRWSRVV | 0.443 ± 0.017
29 | LDIFRKLVIVLC | 0.18 ± 0.033
30 | LEALRFTFYHFF | 0.615 ± 0.016
31 | LEGRVLRIFCVT | 0.49 ± 0.0052
32 | LFFRCVFRISFF | 0.302 ± 0.03
33 | LFGIDIVITYLL | 0.315 ± 0.036
34 | LFILRPVVGVLN | 0.402 ± 0.035
35 | LFIWFVSSPFYC | 0.451 ± 0.017
36 | LFIYSVCSYYYE | 0.269 ± 0.038
37 | LFRLPSPLLFFL | 0.558 ± 0.025
38 | LFSAFFPLLFLS | 0.436 ± 0.044
39 | LFYATRLLFLCI | 0.411 ± 0.053
40 | LGHSLVRFVYCF | 0.411 ± 0.025
41 | LGVGVVPEFFVV | 0.592 ± 0.022
42 | LLFVVGTGRWVG | 0.629 ± 0.029
43 | LLHSLILLEWVF | 0.19 ± 0.032
44 | LLIFGLLAVPSP | 0.448 ± 0.028
45 | LLLAMLLWVSTM | 0.305 ± 0.034
46 | LLLFLLLPPFPF | 0.449 ± 0.025
47 | LLLLLPLYLLPI | 0.31 ± 0.035
48 | LLLSLYFCFIFF | 0.245 ± 0.035
49 | LLLSSILLILSS | 0.29 ± 0.018
50 | LLPLLLFFSLLR | 0.34 ± 0.034
51 | LLPLSLSLLLSV | 0.432 ± 0.023
52 | LLSAVAHCYFIA | 0.611 ± 0.01

Row | Sequence | protein stability index
53 | LLSLTLALPLAA | 0.337 ± 0.034
54 | LLVFSSPPPAKF | 0.799 ± 0.055
55 | LLVSCPLVLRFR | 0.437 ± 0.01
56 | LLYSLVALGVCV | 0.28 ± 0.032
57 | LMFCPPLLRVAL | 0.372 ± 0.03
58 | LMFSRSLFIVKC | 0.36 ± 0.038
59 | LMPYIIFLMSFQ | 0.351 ± 0.027
60 | LPPSVLPLPPSH | 0.658 ± 0.015
61 | LPPVPLRLTLVL | 0.353 ± 0.026
62 | LPRDPLHAQIAS | 0.645 ± 0.019
63 | LQFSLPCFLLIF | 0.205 ± 0.019
64 | LQLRKQILLLMT | 0.299 ± 0.022
65 | LQSVLRGIDCCA | 0.252 ± 0.053
66 | LRCIFVVVSFTP | 0.172 ± 0.035
67 | LRCLAIFLYRAF | 0.49 ± 0.02
68 | LRRQAFRYRTLL | 0.569 ± 0.021
69 | LRTLVFIWFMYV | 0.273 ± 0.035
70 | LRTYSFTIGTLC | 0.471 ± 0.024
71 | LSALMVLSFILV | 0.379 ± 0.024
72 | LSFRLSYPLPIY | 0.352 ± 0.034
73 | LSIALPFPVLCR | 0.115 ± 0.019
74 | LSITQLFCLCAV | 0.289 ± 0.031
75 | LSLSLQVVVFSM | 0.317 ± 0.024
76 | LSPYPLTFLFSQ | 0.648 ± 0.014
77 | LSWWCFLVLLHW | 0.232 ± 0.026
78 | LTPKRLTVCRLC | 0.688 ± 0.01

Same assay, conditions: genetic background: das1 deletion; temperature: 37 C

Row | Sequence | protein stability index
79 | ISLVLVVIEVQR | 0.316 ± 0.017
80 | ISVFLFAFFFIP | 0.531 ± 0.013
81 | ISVQKRRAIEII | 0.626 ± 0.0078
82 | IVCFCFFLMFSL | 0.417 ± 0.014
83 | IVVLCHVFLDLG | 0.222 ± 0.019
84 | IWCQVGAFLVVF | 0.352 ± 0.0047
85 | IYVLLDVNYHLP | 0.543 ± 0.014
86 | IYVSVMLLRYRF | 0.493 ± 0.0097
87 | KCKIWFREVSMN | 0.729 ± 0.06
88 | KGSFDLPTFSLF | 0.769 ± 0.011
89 | KICAVRVIMDWC | 0.566 ± 0.017
90 | KIKVFHEMVLMC | 0.628 ± 0.017
91 | KKNKIYKERKNI | 0.7245 ± 0.0029
92 | KKNTQKKIKLSC | 0.728 ± 0.045
93 | KKRYSEIFKKNG | 0.769 ± 0.037
94 | KLLLTCTFLVFP | 0.555 ± 0.011
95 | KNKRQKNTIRKQ | 0.757 ± 0.089
96 | KQNKKHKKLKSN | 0.694 ± 0.021
97 | KRLRDFLVIMCS | 0.358 ± 0.0079
98 | KTLCFLCRTRNS | 0.76 ± 0.013
99 | KVRVRTTCWRKL | 0.7074 ± 0.0013
100 | KYHLAAQLLVLL | 0.6431 ± 0.0046
101 | LAFAGRCGLYVC | 0.693 ± 0.0075
102 | LAGLFICTLISC | 0.2775 ± 0.0013
103 | LASCRIVVIYSI | 0.5746 ± 0.0025
104 | LCFEQRYIGVLV | 0.4433 ± 0.0021

Row | Sequence | protein stability index
105 | LCFVSTWVWSVG | 0.58 ± 0.0085
106 | LCWLCIRWSRVV | 0.589 ± 0.013
107 | LDIFRKLVIVLC | 0.2628 ± 0.00073
108 | LEALRFTFYHFF | 0.788 ± 0.029
109 | LEGRVLRIFCVT | 0.651 ± 0.018
110 | LFFRCVFRISFF | 0.387 ± 0.006
111 | LFGIDIVITYLL | 0.441 ± 0.017
112 | LFILRPVVGVLN | 0.555 ± 0.0077
113 | LFIWFVSSPFYC | 0.63068 ± 0.0006
114 | LFIYSVCSYYYE | 0.461 ± 0.049
115 | LFRLPSPLLFFL | 0.6643 ± 0.0018
116 | LFSAFFPLLFLS | 0.572 ± 0.02
117 | LFYATRLLFLCI | 0.5185 ± 0.0026
118 | LGHSLVRFVYCF | 0.538 ± 0.011
119 | LGVGVVPEFFVV | 0.723 ± 0.023
120 | LLFVVGTGRWVG | 0.744 ± 0.024
121 | LLHSLILLEWVF | 0.267 ± 0.011
122 | LLIFGLLAVPSP | 0.569 ± 0.0093
123 | LLLAMLLWVSTM | 0.483 ± 0.02
124 | LLLFLLLPPFPF | 0.604 ± 0.026
125 | LLLLLPLYLLPI | 0.412 ± 0.021
126 | LLLSLYFCFIFF | 0.332 ± 0.018
127 | LLLSSILLILSS | 0.465 ± 0.023
128 | LLPLLLFFSLLR | 0.4062 ± 0.0013
129 | LLPLSLSLLLSV | 0.5638 ± 0.0033
130 | LLSAVAHCYFIA | 0.738 ± 0.01

Row | Sequence | protein stability index
131 | LLSLTLALPLAA | 0.461 ± 0.0074
132 | LLVFSSPPPAKF | 0.833 ± 0.025
133 | LLVSCPLVLRFR | 0.576 ± 0.058
134 | LLYSLVALGVCV | 0.403 ± 0.0012
135 | LMFCPPLLRVAL | 0.526 ± 0.015
136 | LMFSRSLFIVKC | 0.514 ± 0.018
137 | LMPYIIFLMSFQ | 0.5408 ± 0.0045
138 | LPPSVLPLPPSH | 0.73 ± 0.024
139 | LPPVPLRLTLVL | 0.503 ± 0.005
140 | LPRDPLHAQIAS | 0.6959 ± 0.0017
141 | LQFSLPCFLLIF | 0.253 ± 0.0062
142 | LQLRKQILLLMT | 0.432 ± 0.005
143 | LQSVLRGIDCCA | 0.467 ± 0.0052
144 | LRCIFVVVSFTP | 0.305 ± 0.014
145 | LRCLAIFLYRAF | 0.644 ± 0.015
146 | LRRQAFRYRTLL | 0.566 ± 0.006
147 | LRTLVFIWFMYV | 0.4851 ± 0.0041
148 | LRTYSFTIGTLC | 0.6402 ± 0.0061
149 | LSALMVLSFILV | 0.4573 ± 0.00059
150 | LSFRLSYPLPIY | 0.5403 ± 0.0029
151 | LSIALPFPVLCR | 0.091924 ± 4.9e-05
152 | LSITQLFCLCAV | 0.4 ± 0.0069
153 | LSLSLQVVVFSM | 0.484 ± 0.0062
154 | LSPYPLTFLFSQ | 0.742 ± 0.0096
155 | LSWWCFLVLLHW | 0.323 ± 0.021
156 | LTPKRLTVCRLC | 0.7862 ± 0.0057

Source: the supplement of paper PMC10724198
